Measurements taken from the supplement of paper PMC5998384.

Legend:
HeLa Kyoto [1] = test: solubility change mitosis vs G1/S (difference of NP-40 vs SDS log2 ratios) (log2 ratio difference); higher = more soluble in mitosis
HeLa Kyoto [2] = test: solubility in G1/S (NP-40 vs SDS abundance) (log2 ratio); higher = more soluble; conditions: cell cycle stage: G1/S
HeLa Kyoto [3] = test: thermal stability score vs G1/S (z-score of summed log2 fold changes over temperatures); higher = more thermally stable than in G1/S
HeLa Kyoto [4] = test: melting temperature (median over replicates), in situ; higher = more thermally stable
[5] = cell cycle stage: early G1 (4.5 h after nocodazole release)
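Wherever melting temperature (median over replicates), in situ is given: HeLa Kyoto cells synchronized by double thymidine or nocodazole block, proteins quantified by TMT10plex mass spectrometry, three independent biological replicates.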
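Wherever solubility change mitosis vs G1/S (difference of NP-40 vs SDS log2 ratios) is given: synchronized HeLa Kyoto cells (double thymidine block for G1/S, nocodazole release for mitosis), protein amounts in NP-40 versus SDS lysates quantified by mass spectrometry, three biological replicates.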
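Wherever solubility in G1/S (NP-40 vs SDS abundance) is given: HeLa Kyoto cells arrested at G1/S by double thymidine block, proteins quantified by TMT10plex mass spectrometry in mild NP-40 versus SDS extracts, three biological replicates.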
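Wherever thermal stability score vs G1/S (z-score of summed log2 fold changes over temperatures) is given: synchronized HeLa Kyoto cells, proteins quantified by TMT10plex mass spectrometry, three biological replicates, mitosis taken 0.5 h after nocodazole release, G1/S directly after double thymidine block.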

Row | Sequence | solubility change mitosis (log2) (HeLa Kyoto [1]) | solubility in G1/S (log2) (HeLa Kyoto [2]) | thermal stability score (HeLa Kyoto [3]; [5]) | thermal stability score (HeLa Kyoto [3]; cell cycle stage: mitosis) | melting temperature (HeLa Kyoto [4]; cell cycle stage: mitosis) [°C] | melting temperature (HeLa Kyoto [4]; cell cycle stage: G1/S) [°C]
1 | MEGLLHYINPAHAISLLSALNEERLKGQLCDVLLIVGDQKFRAHKNVLAASSEYFQSLFTNKENESQTVFQLDFCEPDAFDNVLNYIYSSSLFVEKSSLAAVQELGYSLGISFLTNIVSKTPQAPFPTCPNRKKVFVEDDENSSQKRSVIVCQSRNEAQGKTVSQNQPDVSHTSRPSPSIAVKANTNKPHVPKPIEPLHNLSLTEKSWPKDSSVVYAKSLEHSGSLDDPNRISLVKRNAVLPSKPLQDREAMDDKPGVSGQLPKGKALELALKRPRPPVLSVCSSSETPYLLKETNKGNGQGEDRNLLYYSKLGLVIPSSGSGSGNQSIDRSGPLVKSLLRRSLSMDSQVPVYSPSIDLKSSQGSSSVSSDAPGNVLCALSQKSSLKDCSEKTALDDRPQVLQPHRLRSFSASQSTDREGASPVTEVRIKTEPSSPLSDPSDIIRVTVGDAATTAAASSSSVTRDLSLKTEDDQKDMSRLPAKRRFQADRRLPFKKLKVNEHGSPVSEDNFEEGSSPTLLDADFPDSDLNKDEFGELEGTRPNKKFKCKHCLKIFRSTAGLHRHVNMYHNPEKPYACDICHKRFHTNFKVWTHCQTQHGIVKNPSPASSSHAVLDEKFQRKLIDIVREREIKKALIIKLRRGKPGFQGQSSSQAQQVIKRNLRSRAKGAYICTYCGKAYRFLSQFKQHIKMHPGEKPLGVNKVAKPKEHAPLASPVENKEVYQCRLCNAKLSSLLEQGSHERLCRNAAVCPYCSLRFFSPELKQEHESKCEYKKLTCLECMRTFKSSFSIWRHQVEVHNQNNMAPTENFSLPVLDHNGDVTGSSRPQSQPEPNKVNHIVTTKDDNVFSDSSEQVNFDSEDSSCLPEDLSLSKQLKIQVKEEPVEEAEEEAPEASTAPKEAGPSKEASLWPCEKCGKMFTVHKQLERHQELLCSVKPFICHVCNKAFRTNFRLWSHFQSHMSQASEESAHKESEVCPVPTNSPSPPPLPPPPPLPKIQPLEPDSPTGLSENPTPATEKLFVPQESDTLFYHAPPLSAITFKRQFMCKLCHRTFKTAFSLWSHEQTHN [ZBTB21] | -0.0564 | -0.0999 | 0.647 | 0.374 | 51.7 | –
2 | MEGSEPVAAHQGEEASCSSWGTGSTNKNLPIMSTASVEIDDALYSRQRYVLGDTAMQKMAKSHVFLSGMGGLGLEIAKNLVLAGIKAVTIHDTEKCQAWDLGTNFFLSEDDVVNKRNRAEAVLKHIAELNPYVHVTSSSVPFNETTDLSFLDKYQCVVLTEMKLPLQKKINDFCRSQCPPIKFISADVHGIWSRLFCDFGDEFEVLDTTGEEPKEIFISNITQANPGIVTCLENHPHKLETGQFLTFREINGMTGLNGSIQQITVISPFSFSIGDTTELEPYLHGGIAVQVKTPKTVFFESLERQLKHPKCLIVDFSNPEAPLEIHTAMLALDQFQEKYSRKPNVGCQQDSEELLKLATSISETLEEKPDVNADIVHWLSWTAQGFLSPLAAAVGGVASQEVLKAVTGKFSPLCQWLYLEAADIVESLGKPECEEFLPRGDRYDALRACIGDTLCQKLQNLNIFLVGCGAIGCEMLKNFALLGVGTSKEKGMITVTDPDLIEKSNLNRQFLFRPHHIQKPKSYTAADATLKINSQIKIDAHLNKVCPTTETIYNDEFYTKQDVIITALDNVEARRYVDSRCLANLRPLLDSGTMGTKGHTEVIVPHLTESYNSHRDPPEEEIPFCTLKSFPAAIEHTIQWARDKFESSFSHKPSLFNKFWQTYSSAEEVLQKIQSGHSLEGCFQVIKLLSRRPRNWSQCVELARLKFEKYFNHKALQLLHCFPLDIRLKDGSLFWQSPKRPPSPIKFDLNEPLHLSFLQNAAKLYATVYCIPFAEEDLSADALLNILSEVKIQEFKPSNKVVQTDETARKPDHVPISSEDERNAIFQLEKAILSNEATKSDLQMAVLSFEKDDDHNGHIDFITAASNLRAKMYSIEPADRFKTKRIAGKIIPAIATTTATVSGLVALEMIKVTGGYPFEAYKNCFLNLAIPIVVFTETTEVRKTKIRNGISFTIWDRWTVHGKEDFTLLDFINAVKEKYGIEPTMVVQGVKMLYVPVMPGHAKRLKLTMHKLVKPTTEKKYVDLTVSFAPDIDGDEDLPGPPVRYYFSHDTD [UBA6] | -0.192 | 0.00865 | -0.786 | -0.409 | 49.8 | 50.7
3 | MEHIRTTKVEQVKLLDRFSTSNKSLTGTLYLTATHLLFIDSHQKETWILHHHIASVEKLALTTSGCPLVIQCKNFRTVHFIVPRERDCHDIYNSLLQLSKQAKYEDLYAFSYNPKQNDSERLQGWQLIDLAEEYKRMGVPNSHWQLSDANRDYKICETYPRELYVPRIASKPIIVGSSKFRSKGRFPVLSYYHQDKEAAICRCSQPLSGFSARCLEDEHLLQAISKANPVNRYMYVMDTRPKLNAMANRAAGKGYENEDNYSNIRFQFVGIENIHVMRSSLQKLLEVNGTKGLSVNDFYSGLESSGWLRHIKAVMDAAIFLAKAITVENASVLVHCSDGWDRTSQVCSLGSLLLDSYYRTIKGFMVLIEKDWISFGHKFSERCGQLDGDPKEVSPVFTQFLECVWHLTEQFPQAFEFSEAFLLQIHEHIHSCQFGNFLGNCQKEREELKLKEKTYSLWPFLLEDQKKYLNPLYSSESHRFTVLEPNTVSFNFKFWRNMYHQFDRTLHPRQSVFNIIMNMNEQNKQLEKDIKDLESKIKQRKNKQTDGILTKELLHSVHPESPNLKTSLCFKEQTLLPVNDALRTIEGSSPADNRYSEYAEEFSKSEPAVVSLEYGVARMTC [MTMR6] | 0.0297 | -0.264 | -0.167 | 0.0404 | 50.5 | 51
4 | MEKNGNNRKLRVCVATCNRADYSKLAPIMFGIKTEPEFFELDVVVLGSHLIDDYGNTYRMIEQDDFDINTRLHTIVRGEDEAAMVESVGLALVKLPDVLNRLKPDIMIVHGDRFDALALATSAALMNIRILHIEGGEVSGTIDDSIRHAITKLAHYHVCCTRSAEQHLISMCEDHDRILLAGCPSYDKLLSAKNKDYMSIIRMWLGDDVKSKDYIVALQHPVTTDIKHSIKMFELTLDALISFNKRTLVLFPNIDAGSKEMVRVMRKKGIEHHPNFRAVKHVPFDQFIQLVAHAGCMIGNSSCGVREVGAFGTPVINLGTRQIGRETGENVLHVRDADTQDKILQALHLQFGKQYPCSKIYGDGNAVPRILKFLKSIDLQEPLQKKFCFPPVKENISQDIDHILETLSALAVDLGGTNLRVAIVSMKGEIVKKYTQFNPKTYEERINLILQMCVEAAAEAVKLNCRILGVGISTGGRVNPREGIVLHSTKLIQEWNSVDLRTPLSDTLHLPVWVDNDGNCAALAERKFGQGKGLENFVTLITGTGIGGGIIHQHELIHGSSFCAAELGHLVVSLDGPDCSCGSHGCIEAYASGMALQREAKKLHDEDLLLVEGMSVPKDEAVGALHLIQAAKLGNAKAQSILRTAGTALGLGVVNILHTMNPSLVILSGVLASHYIHIVKDVIRQQALSSVQDVDVVVSDLVDPALLGAASMVLDYTTRRIY [GNE] | -0.159 | -0.138 | 3.4 | 4.39 | 55.8 | 55.2
5 | MEKSNETNGYLDSAQAGPAAGPGAPGTAAGRARRCAGFLRRQALVLLTVSGVLAGAGLGAALRGLSLSRTQVTYLAFPGEMLLRMLRMIILPLVVCSLVSGAASLDASCLGRLGGIAVAYFGLTTLSASALAVALAFIIKPGSGAQTLQSSDLGLEDSGPPPVPKETVDSFLDLARNLFPSNLVVAAFRTYATDYKVVTQNSSSGNVTHEKIPIGTEIEGMNILGLVLFALVLGVALKKLGSEGEDLIRFFNSLNEATMVLVSWIMWYVPVGIMFLVGSKIVEMKDIIVLVTSLGKYIFASILGHVIHGGIVLPLIYFVFTRKNPFRFLLGLLAPFATAFATCSSSATLPSMMKCIEENNGVDKRISRFILPIGATVNMDGAAIFQCVAAVFIAQLNNVELNAGQIFTILVTATASSVGAAGVPAGGVLTIAIILEAIGLPTHDLPLILAVDWIVDRTTTVVNVEGDALGAGILHHLNQKATKKGEQELAEVKVEAIPNCKSEEETSPLVTHQNPAGPVASAPELESKESVL [SLC1A4] | 0.0714 | -0.527 | -1.93 | -4.67 | 62.8 | 58.9
